Experimental data published in patent US10500249B2, “Compositions and methods for preventing or treating diseases, conditions, or processes characterized by aberrant fibroblast proliferation and extracellular matrix deposition” (MOERAE MATRIX, INC., priority 2014, dated 2019).

Key:
Test in all cases: Kinase Profiling Assay
Format in all cases: biochemical
Conditions in all cases: 100 μM
CaMKIV (h) = target: T1, CaMKIV (h) (Homo sapiens, UniProt Q16566)
T1 construct: purchased Millipore
T1 sequence (Q16566 1-473): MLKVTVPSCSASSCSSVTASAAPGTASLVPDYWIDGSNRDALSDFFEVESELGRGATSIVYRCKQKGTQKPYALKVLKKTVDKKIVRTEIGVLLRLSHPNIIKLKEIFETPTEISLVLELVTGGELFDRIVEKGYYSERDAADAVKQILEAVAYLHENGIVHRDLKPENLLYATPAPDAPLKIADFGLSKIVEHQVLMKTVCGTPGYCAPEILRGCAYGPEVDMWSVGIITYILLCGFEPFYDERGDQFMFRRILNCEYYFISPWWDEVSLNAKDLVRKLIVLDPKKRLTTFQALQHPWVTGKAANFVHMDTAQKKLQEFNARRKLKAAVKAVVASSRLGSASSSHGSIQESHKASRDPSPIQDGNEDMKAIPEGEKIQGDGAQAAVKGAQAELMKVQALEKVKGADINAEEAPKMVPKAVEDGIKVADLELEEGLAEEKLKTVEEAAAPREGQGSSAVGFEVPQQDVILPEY
Summary of the method: (§1)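 Scintillation counting quantifies radiolabeled, positively charged substrate retained on a negatively charged filter after kinase reaction with labeled ATP; inhibitor peptide present.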

DRAK1 (h) = target: T2, DRAK1 (h) (Homo sapiens, UniProt Q9UEE5)
T2 construct: purchased Millipore
T2 sequence (Q9UEE5 1-414): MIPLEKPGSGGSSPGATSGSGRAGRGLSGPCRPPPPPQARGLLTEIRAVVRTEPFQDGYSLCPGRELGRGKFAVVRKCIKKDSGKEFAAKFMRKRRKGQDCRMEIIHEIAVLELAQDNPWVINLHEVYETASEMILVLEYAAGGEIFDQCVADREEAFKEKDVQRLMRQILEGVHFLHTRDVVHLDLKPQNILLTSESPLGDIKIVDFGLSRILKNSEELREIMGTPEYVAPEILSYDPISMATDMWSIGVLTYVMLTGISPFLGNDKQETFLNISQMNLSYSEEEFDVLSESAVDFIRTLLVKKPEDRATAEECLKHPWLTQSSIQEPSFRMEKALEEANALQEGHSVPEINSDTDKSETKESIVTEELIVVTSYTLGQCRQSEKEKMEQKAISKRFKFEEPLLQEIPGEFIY
Summary of the method: as §1

IRR (h) = target: T3, IRR (h) (Homo sapiens, UniProt P14616)
T3 construct: purchased Millipore
Summary of the method: as §1

JAK2 (h) = target: T4, JAK2 (h) (Homo sapiens, UniProt O60674)
T4 construct: purchased Millipore
Summary of the method: as §1

SGK3 (h) = target: T5, SGK3 (h) (Homo sapiens, UniProt Q96BR1)
T5 sequence (Q96BR1 1-496): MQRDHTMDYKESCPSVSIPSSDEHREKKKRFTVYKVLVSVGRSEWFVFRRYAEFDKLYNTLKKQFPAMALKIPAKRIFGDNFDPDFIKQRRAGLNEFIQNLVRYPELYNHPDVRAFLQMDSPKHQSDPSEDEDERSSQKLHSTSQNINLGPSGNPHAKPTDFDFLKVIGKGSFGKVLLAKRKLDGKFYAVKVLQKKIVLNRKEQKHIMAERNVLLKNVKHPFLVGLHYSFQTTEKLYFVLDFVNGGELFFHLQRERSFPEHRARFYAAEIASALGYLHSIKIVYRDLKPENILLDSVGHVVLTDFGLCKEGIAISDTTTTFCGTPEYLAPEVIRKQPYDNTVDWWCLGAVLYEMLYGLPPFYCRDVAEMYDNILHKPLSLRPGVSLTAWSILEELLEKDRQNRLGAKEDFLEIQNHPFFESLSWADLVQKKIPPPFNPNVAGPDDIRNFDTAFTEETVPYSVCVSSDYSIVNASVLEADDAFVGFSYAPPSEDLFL
Summary of the method: as §1

STK33 (h) = STK33 (h) (Homo sapiens, UniProt Q9BYT3)
Summary of the method: as §1

T3 sequence (P14616 27-1297): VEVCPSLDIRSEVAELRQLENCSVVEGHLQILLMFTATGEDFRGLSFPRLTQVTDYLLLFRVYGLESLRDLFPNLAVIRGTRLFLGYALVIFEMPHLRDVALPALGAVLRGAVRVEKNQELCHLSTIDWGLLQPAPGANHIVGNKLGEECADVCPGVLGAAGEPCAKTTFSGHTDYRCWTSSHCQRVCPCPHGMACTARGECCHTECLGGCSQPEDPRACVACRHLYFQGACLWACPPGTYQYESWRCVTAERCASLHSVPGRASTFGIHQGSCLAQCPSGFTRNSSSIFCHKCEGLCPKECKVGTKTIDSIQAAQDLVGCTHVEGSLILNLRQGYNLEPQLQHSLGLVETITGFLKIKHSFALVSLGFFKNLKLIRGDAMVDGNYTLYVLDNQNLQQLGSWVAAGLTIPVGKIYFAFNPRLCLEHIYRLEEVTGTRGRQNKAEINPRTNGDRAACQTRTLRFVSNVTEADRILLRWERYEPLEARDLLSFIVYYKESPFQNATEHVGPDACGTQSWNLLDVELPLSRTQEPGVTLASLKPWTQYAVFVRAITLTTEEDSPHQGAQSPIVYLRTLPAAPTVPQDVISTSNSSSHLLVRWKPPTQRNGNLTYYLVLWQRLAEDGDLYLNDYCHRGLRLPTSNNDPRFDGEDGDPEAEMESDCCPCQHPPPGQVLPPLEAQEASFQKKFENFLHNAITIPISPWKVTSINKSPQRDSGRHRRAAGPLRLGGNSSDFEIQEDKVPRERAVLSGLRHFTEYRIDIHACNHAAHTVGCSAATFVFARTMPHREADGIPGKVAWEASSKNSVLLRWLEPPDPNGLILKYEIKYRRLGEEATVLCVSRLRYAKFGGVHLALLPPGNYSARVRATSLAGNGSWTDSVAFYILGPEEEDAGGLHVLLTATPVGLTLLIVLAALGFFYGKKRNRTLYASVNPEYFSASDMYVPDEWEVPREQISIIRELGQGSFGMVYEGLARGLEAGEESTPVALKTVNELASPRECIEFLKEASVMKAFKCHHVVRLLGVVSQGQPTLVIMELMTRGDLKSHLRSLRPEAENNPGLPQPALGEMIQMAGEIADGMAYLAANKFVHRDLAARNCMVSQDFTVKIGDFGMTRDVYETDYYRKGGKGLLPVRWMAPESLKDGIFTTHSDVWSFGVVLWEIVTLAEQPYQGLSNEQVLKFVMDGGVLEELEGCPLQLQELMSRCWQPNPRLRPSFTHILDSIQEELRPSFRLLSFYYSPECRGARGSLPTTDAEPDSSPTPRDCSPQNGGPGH
T4 sequence (O60674 whole entry): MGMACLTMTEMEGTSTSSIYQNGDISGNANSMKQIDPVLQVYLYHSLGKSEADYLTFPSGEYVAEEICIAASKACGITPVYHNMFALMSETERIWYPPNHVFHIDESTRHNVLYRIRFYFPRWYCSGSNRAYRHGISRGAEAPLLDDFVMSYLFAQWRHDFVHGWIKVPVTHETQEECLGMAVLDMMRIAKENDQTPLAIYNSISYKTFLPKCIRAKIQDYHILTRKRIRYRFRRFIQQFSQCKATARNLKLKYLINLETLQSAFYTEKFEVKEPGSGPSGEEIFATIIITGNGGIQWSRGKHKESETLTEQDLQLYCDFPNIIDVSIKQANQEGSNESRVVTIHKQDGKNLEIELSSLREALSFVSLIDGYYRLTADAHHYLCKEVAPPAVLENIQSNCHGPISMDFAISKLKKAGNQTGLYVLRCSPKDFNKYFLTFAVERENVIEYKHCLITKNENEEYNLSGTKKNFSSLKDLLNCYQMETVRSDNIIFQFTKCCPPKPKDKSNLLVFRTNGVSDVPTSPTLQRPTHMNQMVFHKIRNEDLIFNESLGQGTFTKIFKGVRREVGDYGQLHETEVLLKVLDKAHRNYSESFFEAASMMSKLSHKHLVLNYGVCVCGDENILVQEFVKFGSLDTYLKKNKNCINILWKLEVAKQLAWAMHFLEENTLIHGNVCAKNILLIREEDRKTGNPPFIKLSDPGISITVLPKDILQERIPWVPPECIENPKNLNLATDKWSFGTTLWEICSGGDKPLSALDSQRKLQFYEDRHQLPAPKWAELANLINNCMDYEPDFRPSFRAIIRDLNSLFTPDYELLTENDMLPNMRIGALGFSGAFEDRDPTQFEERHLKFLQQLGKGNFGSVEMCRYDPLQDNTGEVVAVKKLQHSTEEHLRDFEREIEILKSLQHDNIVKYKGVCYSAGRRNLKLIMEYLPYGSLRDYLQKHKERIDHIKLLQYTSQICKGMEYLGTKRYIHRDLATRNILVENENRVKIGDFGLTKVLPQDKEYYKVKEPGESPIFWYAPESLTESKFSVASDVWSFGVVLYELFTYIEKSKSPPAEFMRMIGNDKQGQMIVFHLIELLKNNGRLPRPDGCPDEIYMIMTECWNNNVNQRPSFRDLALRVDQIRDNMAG
Sequence of STK33 (h) (Q9BYT3 whole entry): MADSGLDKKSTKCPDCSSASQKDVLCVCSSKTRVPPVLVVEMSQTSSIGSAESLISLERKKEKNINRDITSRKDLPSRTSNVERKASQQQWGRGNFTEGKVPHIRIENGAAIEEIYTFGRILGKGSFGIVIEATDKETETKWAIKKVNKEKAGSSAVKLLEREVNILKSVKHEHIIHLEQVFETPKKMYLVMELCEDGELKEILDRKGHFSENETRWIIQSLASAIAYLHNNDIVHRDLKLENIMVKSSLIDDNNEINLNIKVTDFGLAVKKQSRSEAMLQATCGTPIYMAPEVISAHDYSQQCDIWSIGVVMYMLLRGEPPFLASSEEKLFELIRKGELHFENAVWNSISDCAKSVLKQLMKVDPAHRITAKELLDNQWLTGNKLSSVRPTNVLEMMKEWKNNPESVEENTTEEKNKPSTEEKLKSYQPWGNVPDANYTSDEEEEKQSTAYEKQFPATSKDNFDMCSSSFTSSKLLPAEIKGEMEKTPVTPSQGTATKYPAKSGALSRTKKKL

| Sequence | % activity (CaMKIV (h)) | % activity (DRAK1 (h)) | % activity (IRR (h)) | % activity (JAK2 (h)) | % activity (SGK3 (h)) | % activity (STK33 (h)) |
| --- | --- | --- | --- | --- | --- | --- |
| FAKLAARLYRKALARQLGVAA [MMI-0300] | 17% | 14% | 8% | 133% | 10% | 45% |
| HRRIKAWLKKIKALARQLGVAA (Mammalian) [MMI-0500] | −1% | 8% | 10% | 49% | −3% | 16% |
| KAFAKLAARLYRKALARQLGVAA [MMI-0400] | 18% | 14% | 8% |  | 8% | 52% |
| YARAAARQARAKALNRQLGVA (Mammalian) [MMI-0200] | 71% | 34% | 69% | 131% | 58% | 98% |
